In patent publication US20220275333A1 (FATE THERAPEUTICS, published 2022):

Molecular target: T1, human MICA (on target cells: MICA over-expressing P815, MICA+ Nalm6, endogenous on A2058, K562, CaSki) (human, UniProt Q29983 24-383)
T1 sequence (looked up): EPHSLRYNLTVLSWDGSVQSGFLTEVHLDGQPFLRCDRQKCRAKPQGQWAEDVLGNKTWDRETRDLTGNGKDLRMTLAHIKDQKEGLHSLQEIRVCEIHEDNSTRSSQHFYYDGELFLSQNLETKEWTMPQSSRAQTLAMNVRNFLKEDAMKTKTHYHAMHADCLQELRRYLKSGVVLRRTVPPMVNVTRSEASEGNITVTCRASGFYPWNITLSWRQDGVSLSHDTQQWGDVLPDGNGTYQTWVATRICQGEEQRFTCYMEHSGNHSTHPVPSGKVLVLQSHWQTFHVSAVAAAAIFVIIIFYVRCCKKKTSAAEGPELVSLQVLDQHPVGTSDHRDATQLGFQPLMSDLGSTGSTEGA
Test: cell-based or functional assay

B1: MICA/B CAR (anti-MICA/B chimeric antigen receptor; version not stated for the experiment) (other)
VH: QIQLVQSGPELKKPGETVKVSCKASGYMFTNYAMNWVKQAPEKGLKWMGWINTHTGDPTYADDFKGRIAFSLETSASTAYLQINNLKNEDTATYFCVRTYGNYAMDYWGQGTSVTVSS
VL: DIQMTQTTSSLSASLGDRVTISCSASQDISNYLNWYQQKPDGTVKLLIYDTSILHLGVPSRFSGSGSGTDYSLTISNLEPEDIATYYCQQYSKFPRTFGGGTTLEIK
  EC50 of cytotoxicity (% Caspase 3/7+ target cells) of MICA/B CAR+ T cells on MICA+ Nalm6 cells over E:T ratios, 4 hours: ~1.9 E:T ratio
  EC50 of cytotoxicity (% Caspase 3/7+ target cells) of MICA/B CAR+ iNK cells on P815 MICA+ cells over E:T ratios, 4 hours: ~5.2 E:T ratio
